From FireProtDB (doi:10.1021/bi201253b) come the findings set out here.

For the data set the following is noted: Moniliophthora perniciosa, pH 7.2, Thermal, CD, sodium phosphate buffer 4mM, whole UniProt chain shown.

B1: wild type, A5H7H0 (protein)
chain: MQLQNFLSIVLLVVSGAIAGTVMDHDKIAKLPASGSPLETKFQPQLHIGNGCHSYPAVDAQGNWSGGLKPTGAPSAACKDTSKAQTYVRSATFQGKTALVYAWYMPKDEISTGIGHRHDWEGAVVFLNSDTQQIDGVAASAHGKWRKYPNPGGANIDDTHVKLQYSAEPVINSHALDLTDKGGDLPTLASWEGMGADARAAINERSHWGDANPPIADSLIGSSLSGAWMW
In general, Tm refers to the temperature at which the thermal transition is half complete. In the case of B1, the melting temperature (Tm) is 41.6 °C (EDTA CaCl2 62.5 micro M 120 micro M), 40 °C (EDTA CaCl2 with ZnCl2 62.5 micro M 120 micro M 120 micro M) and 41.2 °C (EDTA ZnCl2 62.5 micro M 120 micro M).
